From PMC6825267
Where two headings read alike, the source gives them in different places.

T1: RZ-1C (Arabidopsis thaliana, UniProt Q8RWN5 1-310)
T1 sequence: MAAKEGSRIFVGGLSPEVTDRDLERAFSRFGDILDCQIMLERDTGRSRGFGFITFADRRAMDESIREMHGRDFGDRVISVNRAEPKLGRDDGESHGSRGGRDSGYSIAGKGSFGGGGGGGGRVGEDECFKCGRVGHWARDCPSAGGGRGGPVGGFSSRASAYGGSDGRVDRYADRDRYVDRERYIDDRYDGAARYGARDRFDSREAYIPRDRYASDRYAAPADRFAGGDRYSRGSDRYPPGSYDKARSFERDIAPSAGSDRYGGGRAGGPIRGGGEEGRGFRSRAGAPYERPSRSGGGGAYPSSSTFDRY

T2: HIN1 1-267 (N-terminal, MYB/SANT domains) (Arabidopsis thaliana, UniProt F4J686 1-267)
T2 sequence: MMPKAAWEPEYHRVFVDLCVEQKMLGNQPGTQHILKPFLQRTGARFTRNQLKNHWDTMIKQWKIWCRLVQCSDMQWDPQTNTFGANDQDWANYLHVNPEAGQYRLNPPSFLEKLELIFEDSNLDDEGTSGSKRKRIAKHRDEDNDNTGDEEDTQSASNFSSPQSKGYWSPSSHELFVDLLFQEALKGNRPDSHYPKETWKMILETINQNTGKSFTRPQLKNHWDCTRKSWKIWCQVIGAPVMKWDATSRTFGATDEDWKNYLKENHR


Legend:
Assay in all cases: EMSA
RZ-1C [1] = target: T1, RZ-1C
[2] = target: T2, HIN1 1-267 (N-terminal, MYB/SANT …)
RZ-1C [3] = target: T1, RZ-1C; remark: listed apart in the source
[4] = target: T2, HIN1 1-267 (N-terminal, MYB/SANT …); remark: listed apart in the source

Binder	binding result (RZ-1C [1])	binding result [2]	binding result (RZ-1C [3])	binding result [4]
UUUCGACUUCUUCUUGACAUC (ssRNA) [U probe (GAA repeat to CUU)]	no binding	no binding		
UUUCGAGAAGAAGAAGACAUC (ssRNA) [M probe (GAA repeat, AT1G50740 intron 1 flank)]	binds	binds		
UUUCGACUUGAAGAUCUCAUC (ssRNA) [M2 probe (motif reduced to GAAGA)]			no binding	no binding
